Results from IntAct's records for PubMed 12529446.

Target: gef1_schpo gef1 (UniProt Q09763)
Sequence (Q09763 whole entry): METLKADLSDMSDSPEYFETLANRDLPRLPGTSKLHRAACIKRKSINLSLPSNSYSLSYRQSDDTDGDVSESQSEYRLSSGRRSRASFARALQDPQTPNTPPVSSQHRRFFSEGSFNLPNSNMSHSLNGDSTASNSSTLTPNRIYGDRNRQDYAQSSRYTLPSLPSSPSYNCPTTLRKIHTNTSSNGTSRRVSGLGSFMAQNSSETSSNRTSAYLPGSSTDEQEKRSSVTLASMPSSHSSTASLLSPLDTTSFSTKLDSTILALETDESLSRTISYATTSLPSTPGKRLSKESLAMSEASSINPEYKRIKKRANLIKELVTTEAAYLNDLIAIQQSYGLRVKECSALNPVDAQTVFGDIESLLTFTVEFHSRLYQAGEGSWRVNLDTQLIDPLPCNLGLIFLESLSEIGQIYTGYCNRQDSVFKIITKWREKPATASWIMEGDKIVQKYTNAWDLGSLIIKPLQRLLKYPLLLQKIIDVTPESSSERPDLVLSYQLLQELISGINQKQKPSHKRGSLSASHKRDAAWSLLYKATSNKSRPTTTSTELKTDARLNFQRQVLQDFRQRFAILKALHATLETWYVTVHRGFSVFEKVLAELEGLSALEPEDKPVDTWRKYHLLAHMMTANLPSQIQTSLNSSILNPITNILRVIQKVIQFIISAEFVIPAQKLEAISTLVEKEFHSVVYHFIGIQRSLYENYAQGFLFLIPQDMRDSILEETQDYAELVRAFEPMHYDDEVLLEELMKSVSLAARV

Chain of Cell division control protein 42 homolog (Schizosaccharomyces pombe (strain ATCC 38366 / 972)), Q01112 T17N (Q01112 whole entry T17N): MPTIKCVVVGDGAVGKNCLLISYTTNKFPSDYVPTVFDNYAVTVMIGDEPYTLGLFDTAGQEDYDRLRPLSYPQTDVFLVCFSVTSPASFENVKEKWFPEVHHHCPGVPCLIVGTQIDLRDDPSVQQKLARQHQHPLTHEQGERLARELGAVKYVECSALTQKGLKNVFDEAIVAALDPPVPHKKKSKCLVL
Chain of Cell division control protein 42 homolog (Schizosaccharomyces pombe (strain ATCC 38366 / 972)), Q01112 D118A (Q01112 whole entry D118A): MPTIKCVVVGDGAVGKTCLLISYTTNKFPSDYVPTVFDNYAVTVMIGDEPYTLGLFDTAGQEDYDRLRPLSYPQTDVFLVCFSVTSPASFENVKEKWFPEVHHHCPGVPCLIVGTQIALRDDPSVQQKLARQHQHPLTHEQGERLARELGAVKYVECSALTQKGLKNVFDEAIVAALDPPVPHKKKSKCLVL

| effect of a mutation on the interaction | Substance |
| --- | --- |
| increasing interaction | Cell division control protein 42 homolog (Schizosaccharomyces pombe (strain ATCC 38366 / 972)), Q01112 D118A |
| increasing interaction | Cell division control protein 42 homolog (Schizosaccharomyces pombe (strain ATCC 38366 / 972)), Q01112 T17N |
